The results in this text go back to patent US20040151713.

Positions count from the first letter of the chain named. Numbers in names are those of the source.

For data set [1], the target named is GST-fusion recombinant protein containing human Weel (full-length protein), P30291.
Data set [2] concerns the target T1, GST-Cdc25B (C terminal peptide: 281-381aa), P30305.
T1 chain: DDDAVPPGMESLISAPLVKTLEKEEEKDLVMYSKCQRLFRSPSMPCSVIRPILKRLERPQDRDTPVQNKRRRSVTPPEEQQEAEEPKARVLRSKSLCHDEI

Data set [3] deals with T2, GST-Cdc25C (C terminal peptide: 195-260aa), P30307.
T2 chain: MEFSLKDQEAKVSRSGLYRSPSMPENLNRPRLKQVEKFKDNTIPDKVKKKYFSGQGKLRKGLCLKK

Data set [4] concerns the target GST-Cdc25C S216A [GST: P08515].
The target in data set [5] is GST-Cdc25B S309A [GST: P08515].

GST-fusion recombinant protein containing human Weel (full-length protein), P30291, sequence (P30291 whole entry, looked up, the tested form may be a part): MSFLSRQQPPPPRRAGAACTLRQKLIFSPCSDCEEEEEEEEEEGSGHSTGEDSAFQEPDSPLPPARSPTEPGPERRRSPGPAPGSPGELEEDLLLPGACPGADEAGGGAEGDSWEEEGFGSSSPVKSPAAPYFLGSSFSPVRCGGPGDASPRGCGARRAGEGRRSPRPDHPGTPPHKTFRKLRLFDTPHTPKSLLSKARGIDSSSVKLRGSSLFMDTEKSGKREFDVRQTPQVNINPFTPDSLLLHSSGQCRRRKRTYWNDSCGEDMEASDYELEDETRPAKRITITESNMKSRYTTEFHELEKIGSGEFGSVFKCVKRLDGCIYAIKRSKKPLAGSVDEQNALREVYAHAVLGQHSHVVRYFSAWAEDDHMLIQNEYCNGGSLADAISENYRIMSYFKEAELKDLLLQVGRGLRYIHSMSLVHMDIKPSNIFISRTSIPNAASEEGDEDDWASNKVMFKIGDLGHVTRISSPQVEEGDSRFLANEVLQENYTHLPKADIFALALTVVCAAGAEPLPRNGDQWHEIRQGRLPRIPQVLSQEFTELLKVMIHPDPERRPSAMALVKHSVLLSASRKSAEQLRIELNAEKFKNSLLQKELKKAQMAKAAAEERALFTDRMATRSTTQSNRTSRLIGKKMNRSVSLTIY

B1: hCdr2 wild-type (wt) recombinant protein with c-Myc tag (protein)
chain: MSSGAKEGGGGSPAYHLPHPHPHPPQHAQYVGPYRLEKTLGKGQTGLVKLGVHCITGQKVAIKIVNREKLSESVLMKVEREIAILKLIEHPHVLKLHDVYENKKYLYLVLEHVSGGELFDYLVKKGRLTPKEARKFFRQIVVCAGLCHSYSICHRDLKPENLLLDEKNNIRIADFGMASLQVGDSLLETSCGSPHYACPEVIKGEKYDGRRADMWSCGVILFALLVGALPFDDDNLRQLLEKVKRGVFHMPHFIPPDCQSLLRGMIEVEPEKRLSLEQIQKHPWYLGGKHEPDPCLEPAPGRRVAMRSLPSNGELDPDVLESMASLGCFRDRERLHRELRSEEENQEKMIYYLLLDRKERYPSCEDQDLPPRNDVDPPRKRVDSPMLSRHGKRRPERKSMEVLSITDAGGGGSPVPTRRALEMAQHSQRSRSVSGASTGLSSSPLSSPRSPVFSFSPEPGAGDEARGGGSPTSKTQTLPGPPGSPRSSGGTPLHSPLHTPRASPTGTPGTTPPPSPGGGVGGAAWRSRLNSIRNSFLGSPRFHRRKMQVPTAEEMSSLTPESSPELAKRSWFGNFISLDKEEQIFLVLKDKPLSSIKADIVHAFLSIPSLSHSVLSQTSFRAEYKASGGPSVFQKPVRFQVDISSSEGPEPSPRRDGSGGGGIYSVTFTLISGPSRRFKRVVETIQAQLLSTHDQPSVQALADEKNGAQTRPAGAPPRSLQPPPGRPDPELSSSPRRGPPKDKKLLATNGTPLP
B1: the “in vitro kinase assay (32P autoradiography)” value in data set [1] is reported as “the human Weel could not be phosphorylated”; in data set [2] it was “the hCdr2 wt protein severely phosphorylated the GST-Cdc25B (C terminal peptide: 282-381aa)”; in data set [3], “the hCdr2 wt protein phosphorylated GST-Cdc25C (C terminal peptide: 195-260aa)”; in data set [4], “When GST-Cdc25C S216A was used as a substrate, phosphorylation of the hCdr2 wt protein did not occur”; in data set [5] it was “When GST-Cdc25B S309A was used as a substrate, even the hCdr2 wt protein did not provide phosphorylation action”.

B2: hCdr2 K59A kinase-dead mutated protein with c-Myc tag (protein)
chain: B1 chain with K59A
Turning to B2, the “in vitro kinase assay (32P autoradiography)” value was “the weak phosphorylating action exhibited by the mock and hCdr2 K59A” in data set [2]; “but failed to phosphorylate the hCdr2 K59A protein” in data set [3].
